From publication PMC6359974 come the findings set out here.

The experiment concerns the target polymerized MTs of COV362 lysate (taxol-treated) (human (endogenous in COV362)) (UniProt P68363). In words: co-sedimentation.
Sequence of UniProt P68363 (P68363 whole entry, chain 1 of 2): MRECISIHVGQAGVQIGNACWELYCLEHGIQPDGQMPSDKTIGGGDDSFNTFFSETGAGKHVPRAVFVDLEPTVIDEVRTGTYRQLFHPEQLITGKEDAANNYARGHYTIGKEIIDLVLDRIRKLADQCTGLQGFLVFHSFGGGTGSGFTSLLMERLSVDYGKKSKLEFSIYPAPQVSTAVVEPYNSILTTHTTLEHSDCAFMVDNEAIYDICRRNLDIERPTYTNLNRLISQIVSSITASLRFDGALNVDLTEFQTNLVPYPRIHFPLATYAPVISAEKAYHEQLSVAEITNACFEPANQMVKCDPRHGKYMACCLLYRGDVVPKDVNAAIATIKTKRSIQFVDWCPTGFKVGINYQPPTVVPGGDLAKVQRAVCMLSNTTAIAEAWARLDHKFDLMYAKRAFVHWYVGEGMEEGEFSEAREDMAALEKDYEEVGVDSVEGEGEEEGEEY
Sequence of UniProt P68363 (P07437 whole entry, chain 2 of 2, further chain): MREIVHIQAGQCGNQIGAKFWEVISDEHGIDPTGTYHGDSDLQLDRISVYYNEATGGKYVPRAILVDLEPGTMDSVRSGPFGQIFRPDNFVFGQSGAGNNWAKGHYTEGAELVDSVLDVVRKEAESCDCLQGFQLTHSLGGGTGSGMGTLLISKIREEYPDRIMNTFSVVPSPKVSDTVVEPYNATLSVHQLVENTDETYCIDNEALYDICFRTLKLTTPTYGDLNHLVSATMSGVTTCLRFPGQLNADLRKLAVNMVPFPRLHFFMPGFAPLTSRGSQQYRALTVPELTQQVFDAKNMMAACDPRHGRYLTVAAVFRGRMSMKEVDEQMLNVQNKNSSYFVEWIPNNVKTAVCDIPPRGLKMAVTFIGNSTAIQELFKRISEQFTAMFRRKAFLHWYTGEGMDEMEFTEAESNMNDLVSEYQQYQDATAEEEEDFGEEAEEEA

B1: UNC-45A (endogenous, COV362 cells) (natural protein)
chain: MTVSGPGTPEPRPATPGASSVEQLRKEGNELFKCGDYGGALAAYTQALGLDATPQDQAVLHRNRAACHLKLEDYDKAETEASKAIEKDGGDVKALYRRSQALEKLGRLDQAVLDLQRCVSLEPKNKVFQEALRNIGGQIQEKVRYMSSTDAKVEQMFQILLDPEEKGTEKKQKASQNLVVLAREDAGAEKIFRSNGVQLLQRLLDMGETDLMLAALRTLVGICSEHQSRTVATLSILGTRRVVSILGVESQAVSLAACHLLQVMFDALKEGVKKGFRGKEGAIIVDPARELKVLISNLLDLLTEVGVSGQGRDNALTLLIKAVPRKSLKDPNNSLTLWVIDQGLKKILEVGGSLQDPPGELAVTANSRMSASILLSKLFDDLKCDAERENFHRLCENYIKSWFEGQGLAGKLRAIQTVSCLLQGPCDAGNRALELSGVMESVIALCASEQEEEQLVAVEALIHAAGKAKRASFITANGVSLLKDLYKCSEKDSIRIRALVGLCKLGSAGGTDFSMKQFAEGSTLKLAKQCRKWLCNDQIDAGTRRWAVEGLAYLTFDADVKEEFVEDAAALKALFQLSRLEERSVLFAVASALVNCTNSYDYEEPDPKMVELAKYAKQHVPEQHPKDKPSFVRARVKKLLAAGVVSAMVCMVKTESPVLTSSCRELLSRVFLALVEEVEDRGTVVAQGGGRALIPLALEGTDVGQTKAAQALAKLTITSNPEMTFPGERIYEVVRPLVSLLHLNCSGLQNFEALMALTNLAGISERLRQKILKEKAVPMIEGYMFEEHEMIRRAATECMCNLAMSKEVQDLFEAQGNDRLKLLVLYSGEDDELLQRAAAGGLAMLTSMRPTLCSRIPQVTTHWLEILQALLLSSNQELQHRGAVVVLNMVEASREIASTLMESEMMEILSVLAKGDHSPVTRAAAACLDKAVEYGLIQPNQDGE
As to B1, the percent of UNC-45A bound to MTs came out at 100%.
